Results from PMC5737516.
Substitutions are numbered along the chain they refer to. Like-named read-outs stand apart in the source and are kept apart here.

Key:
Experiment in all cases: pull-down
M1BP;TRF2 [1] = biological target: T1, M1BP;TRF2 (Drosophila melanogaster?;Drosophila …, UniProt Q9VHM3;Q9XZD9 1-418;1-632, |)
T1 sequence 1: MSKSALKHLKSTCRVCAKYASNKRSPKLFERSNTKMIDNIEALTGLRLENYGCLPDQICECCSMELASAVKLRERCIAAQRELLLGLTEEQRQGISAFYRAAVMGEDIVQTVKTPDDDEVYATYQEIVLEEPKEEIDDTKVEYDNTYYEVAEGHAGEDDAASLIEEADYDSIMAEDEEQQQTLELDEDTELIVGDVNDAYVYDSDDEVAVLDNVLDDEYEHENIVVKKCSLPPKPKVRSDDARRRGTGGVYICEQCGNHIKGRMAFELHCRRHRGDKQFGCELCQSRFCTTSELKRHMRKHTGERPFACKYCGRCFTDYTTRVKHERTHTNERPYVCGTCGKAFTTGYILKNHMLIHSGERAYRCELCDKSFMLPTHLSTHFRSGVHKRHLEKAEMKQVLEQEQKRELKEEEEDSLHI
T1 sequence 2: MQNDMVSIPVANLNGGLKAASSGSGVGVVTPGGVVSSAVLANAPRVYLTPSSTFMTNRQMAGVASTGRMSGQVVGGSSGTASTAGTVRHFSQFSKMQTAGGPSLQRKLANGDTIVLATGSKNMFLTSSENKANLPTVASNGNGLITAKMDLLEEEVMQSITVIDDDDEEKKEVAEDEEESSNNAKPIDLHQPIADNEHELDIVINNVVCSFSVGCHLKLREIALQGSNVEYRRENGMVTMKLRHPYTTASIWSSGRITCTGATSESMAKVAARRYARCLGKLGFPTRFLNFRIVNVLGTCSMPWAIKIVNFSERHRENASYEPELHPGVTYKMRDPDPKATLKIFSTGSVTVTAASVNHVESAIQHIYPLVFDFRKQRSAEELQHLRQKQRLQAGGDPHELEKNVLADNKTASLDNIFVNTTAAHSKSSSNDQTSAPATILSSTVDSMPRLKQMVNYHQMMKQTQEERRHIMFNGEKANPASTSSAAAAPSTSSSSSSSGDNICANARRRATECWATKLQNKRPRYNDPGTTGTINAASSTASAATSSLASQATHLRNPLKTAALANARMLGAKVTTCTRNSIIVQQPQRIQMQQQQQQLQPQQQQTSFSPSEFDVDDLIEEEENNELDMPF

M1BP = biological target: T2, M1BP (UniProt Q9VHM3 1-418)
T2 sequence: T1 sequence 1

M1BP;TRF2 [2] = biological target: T1, M1BP;TRF2; remark: listed apart in the source

B1: RpLP1 wtMotif1 (-36 to +14) (dsDNA)
DNA 1: TTCGTCATCGGCGCGGTCACACTGCATATCAACTGCTCTTTCCGGTTTAG
DNA 2: CTAAACCGGAAAGAGCAGTTGATATGCAGTGTGACCGCGCCGATGACGAA
binding result (M1BP;TRF2 [1]): binds
binding result (M1BP): binds

B2: RpLP1 mutMotif1 (-36 to +14) (dsDNA)
DNA 1: B1 DNA 1 with G15C, C20G, C22G
DNA 2: B1 DNA 2 with G29C, G31C, C36G
binding result (M1BP): no binding
binding result (M1BP;TRF2 [2]): no binding

B3: RpL30 wtMotif1 (-52 to +8) (dsDNA)
DNA 1: CCCGTCGGTCACACCAACACAAACGTGGTACCCATTTCCGCCTGTTCTTCCTCTTTCTTT
DNA 2: AAAGAAAGAGGAAGAACAGGCGGAAATGGGTACCACGTTTGTGTTGGTGTGACCGACGGG
binding result (M1BP;TRF2 [1]): binds
binding result (M1BP): binds

B4: RpL30 mutMotif1 (-52 to +8) (dsDNA)
DNA 1: B3 DNA 1 with G7C, C12G, C14G
DNA 2: B3 DNA 2 with G47C, G49C, C54G
binding result (M1BP): no binding
binding result (M1BP;TRF2 [2]): no binding
